Assay results taken from patent publication US20100129369A1 (Eli Lilly, published 2010).

Experiments:
human c-Met [1] = target: T1, human c-Met (human, UniProt P08581 25-1390); assay: cell-based or functional assay
human c-Met ECD-Fc-Flis [2] = target: T2, human c-Met ECD-Fc-Flis (human); assay: HGF-blocking ELISA: HGF signal on coated c-Met ECD-Fc-Flis; Ab 122.07 ng/mL
T2 construct: c-Met ECD fused to Fc with flag- and His-tag at the C-terminus; also called human c-Met extracellular domain (ECD)-Fc-Flis fusion; human c-Met-Flis-Fc ECD
T2 sequence (chain, as listed by the source): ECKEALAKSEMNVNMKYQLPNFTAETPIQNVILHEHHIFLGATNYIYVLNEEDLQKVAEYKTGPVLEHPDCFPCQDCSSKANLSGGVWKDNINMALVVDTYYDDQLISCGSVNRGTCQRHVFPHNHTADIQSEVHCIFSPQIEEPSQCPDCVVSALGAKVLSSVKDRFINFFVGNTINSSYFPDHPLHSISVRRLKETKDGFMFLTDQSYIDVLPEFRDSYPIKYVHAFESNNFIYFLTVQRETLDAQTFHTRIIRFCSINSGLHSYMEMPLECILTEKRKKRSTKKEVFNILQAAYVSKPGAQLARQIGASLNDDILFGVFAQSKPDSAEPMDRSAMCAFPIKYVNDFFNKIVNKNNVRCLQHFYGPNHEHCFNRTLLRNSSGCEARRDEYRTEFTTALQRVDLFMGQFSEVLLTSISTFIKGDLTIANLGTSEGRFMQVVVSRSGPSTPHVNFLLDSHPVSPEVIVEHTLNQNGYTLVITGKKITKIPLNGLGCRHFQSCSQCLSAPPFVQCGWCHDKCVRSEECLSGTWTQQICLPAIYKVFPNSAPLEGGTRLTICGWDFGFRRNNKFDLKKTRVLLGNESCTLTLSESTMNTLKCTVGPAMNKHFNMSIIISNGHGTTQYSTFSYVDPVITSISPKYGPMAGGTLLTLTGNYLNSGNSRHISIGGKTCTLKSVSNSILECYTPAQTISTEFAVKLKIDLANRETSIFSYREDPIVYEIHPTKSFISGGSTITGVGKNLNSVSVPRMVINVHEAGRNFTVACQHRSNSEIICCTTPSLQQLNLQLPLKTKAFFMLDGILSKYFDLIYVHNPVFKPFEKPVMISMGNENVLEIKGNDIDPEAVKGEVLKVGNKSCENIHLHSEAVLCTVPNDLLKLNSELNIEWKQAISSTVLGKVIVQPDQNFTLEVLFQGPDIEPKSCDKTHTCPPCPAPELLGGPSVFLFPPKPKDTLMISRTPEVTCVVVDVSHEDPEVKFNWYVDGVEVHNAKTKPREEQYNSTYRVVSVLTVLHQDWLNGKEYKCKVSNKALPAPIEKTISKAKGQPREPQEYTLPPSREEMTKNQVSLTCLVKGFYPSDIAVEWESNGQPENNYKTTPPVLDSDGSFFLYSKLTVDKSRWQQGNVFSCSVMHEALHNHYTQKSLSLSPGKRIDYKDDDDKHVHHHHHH
Procedure: (§1) Wells of 96-well EIA/RIA high binding plates (Costar, #2592) are coated with 100 μL of human c-Met ECD-Fc-Flis (SEQ ID NO:72) (2 μg/mL) in Dulbecco's phosphate buffered saline (DPBS) overnight at room temperature; washed four times with wash buffer (Tris-buffered saline, pH 8.0, with 0.05% (v/v) polysorbate 20 (TWEEN®-20) (TBS-T) (BioFX Labs, # WSHW-1000-01) in a plate washer; blocked by adding 300 μL of blocking buffer (TBS-T plus 1% (w/v) bovine serum albumin (BSA) (Jackson Immuno, #001-000-162); and incubating for 60 min. at 37° C. Blocking buffer is then removed from the wells and 50 μL of antibodies in blocking buffer at final concentrations as indicated in Table 7 are added into each well, respectively. […] The plates with c-Met antibodies are incubated for 90 min. at 37° C. […] The wells are then washed four times with TBS-T in a plate washer. […] The plates are incubated for 90 min. at room temperature. The wells are again washed four times with TBS-T in a plate washer. 100 μL of a 1:200 dilution of streptavidin-horseradish peroxidase (HRP) (R&D Systems, DY998) in blocking buffer are added to each well. The plates are incubated for 30 min. at room temperature. The wells are washed four times with TBS-T in a plate washer. 100 μL/well of substrate solution (BioFx, #TMBW-1000-01) are then added, and the plates are incubated for 10 min. at room temperature. To stop the reaction, 100 μL/well of stop solution (BioFx, # LSTP-1000-01) are added. The samples are read at a wavelength of 450-570 nm on a microplate reader (Spectra, MAX 190) and no background is subtracted.

human c-Met ECD-Fc-Flis [3] = target: T2, human c-Met ECD-Fc-Flis; assay: HGF-blocking ELISA: HGF signal on coated c-Met ECD-Fc-Flis; Ab 31250.00 ng/mL
Procedure: as §1

human c-Met [4] = target: T1, human c-Met; assay: cell-based or functional assay; remark: listed apart in the source
human c-Met ECD-Fc-Flis [5] = target: T2, human c-Met ECD-Fc-Flis; assay: HGF-blocking ELISA: HGF signal on coated c-Met ECD-Fc-Flis; Ab 0.48 ng/mL
Procedure: as §1

human c-Met ECD-Fc-Flis [6] = target: T2, human c-Met ECD-Fc-Flis; assay: HGF-blocking ELISA: HGF signal on coated c-Met ECD-Fc-Flis; Ab 1953.13 ng/mL
Procedure: as §1

human c-Met ECD-Fc-Flis [7] = target: T2, human c-Met ECD-Fc-Flis; assay: HGF-blocking ELISA: HGF signal on coated c-Met ECD-Fc-Flis; Ab 7812.50 ng/mL
Procedure: as §1

human c-Met ECD-Fc-Flis [8] = target: T2, human c-Met ECD-Fc-Flis; assay: HGF-blocking ELISA: HGF signal on coated c-Met ECD-Fc-Flis; Ab 0.00 ng/mL (HGF only)
Procedure: as §1

human c-Met ECD-Fc-Flis [9] = target: T2, human c-Met ECD-Fc-Flis; assay: HGF-blocking ELISA: HGF signal on coated c-Met ECD-Fc-Flis; Ab 125000.00 ng/mL
Procedure: as §1

human c-Met ECD-Fc-Flis [10] = target: T2, human c-Met ECD-Fc-Flis; assay: HGF-blocking ELISA: HGF signal on coated c-Met ECD-Fc-Flis; Ab 30.52 ng/mL
Procedure: as §1

human c-Met ECD-Fc-Flis [11] = target: T2, human c-Met ECD-Fc-Flis; assay: HGF-blocking ELISA: HGF signal on coated c-Met ECD-Fc-Flis; Ab 1.91 ng/mL
Procedure: as §1

human c-Met [12] = target: T1, human c-Met; assay: cell-based or functional assay; remark: listed apart in the source
human c-Met ECD-Fc-Flis [13] = target: T2, human c-Met ECD-Fc-Flis; assay: HGF-blocking ELISA: HGF signal on coated c-Met ECD-Fc-Flis; Ab 488.28 ng/mL
Procedure: as §1

human c-Met ECD-Fc-Flis [14] = target: T2, human c-Met ECD-Fc-Flis; assay: HGF-blocking ELISA: HGF signal on coated c-Met ECD-Fc-Flis; Ab 7.63 ng/mL
Procedure: as §1

T1 sequence (P08581 25-1390): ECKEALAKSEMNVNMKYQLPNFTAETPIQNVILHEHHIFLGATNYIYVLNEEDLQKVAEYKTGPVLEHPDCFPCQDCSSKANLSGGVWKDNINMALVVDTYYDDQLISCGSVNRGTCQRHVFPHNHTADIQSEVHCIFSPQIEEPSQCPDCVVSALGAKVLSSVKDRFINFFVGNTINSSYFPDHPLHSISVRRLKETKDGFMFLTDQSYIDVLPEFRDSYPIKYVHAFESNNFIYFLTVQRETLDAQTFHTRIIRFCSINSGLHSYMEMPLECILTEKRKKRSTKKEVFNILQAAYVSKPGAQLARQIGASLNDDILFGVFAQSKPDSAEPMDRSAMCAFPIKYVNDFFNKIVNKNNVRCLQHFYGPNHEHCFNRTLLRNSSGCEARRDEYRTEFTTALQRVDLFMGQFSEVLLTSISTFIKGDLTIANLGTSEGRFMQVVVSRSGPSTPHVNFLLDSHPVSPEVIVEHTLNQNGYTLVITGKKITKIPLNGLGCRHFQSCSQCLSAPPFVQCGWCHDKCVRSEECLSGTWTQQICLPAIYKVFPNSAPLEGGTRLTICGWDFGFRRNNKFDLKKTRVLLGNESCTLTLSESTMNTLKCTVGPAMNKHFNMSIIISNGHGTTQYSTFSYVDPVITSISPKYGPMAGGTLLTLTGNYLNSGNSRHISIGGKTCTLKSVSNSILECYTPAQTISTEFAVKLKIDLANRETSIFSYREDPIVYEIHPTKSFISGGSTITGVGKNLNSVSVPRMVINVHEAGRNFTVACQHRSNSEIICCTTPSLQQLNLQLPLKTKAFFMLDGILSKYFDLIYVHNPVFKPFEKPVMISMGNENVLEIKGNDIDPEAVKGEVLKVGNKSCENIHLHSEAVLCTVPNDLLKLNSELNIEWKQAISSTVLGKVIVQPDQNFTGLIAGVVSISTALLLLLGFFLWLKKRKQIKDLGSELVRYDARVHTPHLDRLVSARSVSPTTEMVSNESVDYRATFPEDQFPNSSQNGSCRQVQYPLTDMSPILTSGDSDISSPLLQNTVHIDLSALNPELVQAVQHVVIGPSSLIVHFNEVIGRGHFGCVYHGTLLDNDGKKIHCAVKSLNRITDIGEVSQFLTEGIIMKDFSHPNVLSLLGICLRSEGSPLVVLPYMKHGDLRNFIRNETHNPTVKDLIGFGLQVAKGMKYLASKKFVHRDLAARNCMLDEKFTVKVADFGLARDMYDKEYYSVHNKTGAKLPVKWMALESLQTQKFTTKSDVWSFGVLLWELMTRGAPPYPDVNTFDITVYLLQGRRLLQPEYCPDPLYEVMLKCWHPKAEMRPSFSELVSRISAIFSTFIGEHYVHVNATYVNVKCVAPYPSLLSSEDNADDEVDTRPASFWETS

Row | Binder | AVG CPM, 3H-thymidine incorporation in MKN45 cells, Ab 0.0 ng/mL (no antibody) (human c-Met [1]) [CPM] | AVG CPM, 3H-thymidine incorporation in MKN45 cells, Ab 0.1 ng/mL (human c-Met [1]) [CPM] | AVG CPM, 3H-thymidine incorporation in MKN45 cells, Ab 0.4 ng/mL (human c-Met [1]) [CPM] | AVG CPM, 3H-thymidine incorporation in MKN45 cells, Ab 2.6 ng/mL (human c-Met [1]) [CPM] | AVG CPM, 3H-thymidine incorporation in MKN45 cells, Ab 15.4 ng/mL (human c-Met [1]) [CPM] | AVG CPM, 3H-thymidine incorporation in MKN45 cells, Ab 92.6 ng/mL (human c-Met [1]) [CPM] | AVG CPM, 3H-thymidine incorporation in MKN45 cells, Ab 555.6 ng/mL (human c-Met [1]) [CPM] | AVG CPM, 3H-thymidine incorporation in MKN45 cells, Ab 3333.3 ng/mL (human c-Met [1]) [CPM] | AVG CPM, 3H-thymidine incorporation in MKN45 cells, Ab 20000.0 ng/mL (human c-Met [1]) [CPM] | AVG A450 nm (human c-Met ECD-Fc-Flis [2]) [A450 nm] | AVG A450 nm (human c-Met ECD-Fc-Flis [3]) [A450 nm] | Mean Fluorescence (c-Met left on the surface of MKN45 cells, FACS), Ab 5.00 ug/mL (human c-Met [4]) | AVG A450 nm (human c-Met ECD-Fc-Flis [5]) [A450 nm] | AVG A450 nm (human c-Met ECD-Fc-Flis [6]) [A450 nm] | AVG A450 nm (human c-Met ECD-Fc-Flis [7]) [A450 nm] | AVG A450 nm (human c-Met ECD-Fc-Flis [8]) [A450 nm] | AVG A450 nm (human c-Met ECD-Fc-Flis [9]) [A450 nm] | AVG A450 nm (human c-Met ECD-Fc-Flis [10]) [A450 nm] | AVG A450 nm (human c-Met ECD-Fc-Flis [11]) [A450 nm] | % inhibition of HGF stimulated phospho-Met (ELISA, HCT116 cells), Ab 0.0032 µg/mL (human c-Met [12]) [%] | further results
1 | D11-S17Y (antibody, human IgG2, kappa, V domains shown, Human engineered IgG2 kappa c-Met antibody; also called D11-S17Y IgG2) VH: QVQLVQSGAEVKKPGSSVKVSCKASGYTFTSRYIHWVRQAPGQGLEWMGWIYPVTGDTYYNEKFKGRVTITADKSTSTAYMELSSLRSEDTAVYYCARGYGAFYYWGQGTLVTVSS VL: EIVLTQSPGTLSLSPGERATLSCSVSSSISSTNLHWYQQKPGQAPRLLIYGTSYLASGIPDRFSGSGSGTDFTLTISRLEPEDFAVYYCQQWSSYPYSFGQGTKLEIKR | 44200 | 44600 | 45300 | 49900 | 39700 | 21900 | 20900 | 21200 | 19800 | 1.69 | 1.17 | 56.4 | 2.15 | 1.23 | 1.12 | 2.43 | 1.35 | 2.07 | 1.98 | 9.48 | % inhibition of HGF stimulated phospho-Met (ELISA, HCT116 cells), Ab 0.016 µg/mL (human c-Met [12]): 2.53%; % inhibition of HGF stimulated phospho-Met (ELISA, HCT116 cells), Ab 0.08 µg/mL (human c-Met [12]): -3.24%; % inhibition of HGF stimulated phospho-Met (ELISA, HCT116 cells), Ab 0.4 µg/mL (human c-Met [12]): 15.9%; % inhibition of HGF stimulated phospho-Met (ELISA, HCT116 cells), Ab 2 µg/mL (human c-Met [12]): 31.4%; % inhibition of HGF stimulated phospho-Met (ELISA, HCT116 cells), Ab 10 µg/mL (human c-Met [12]): 16.7%; AVG A450 nm (human c-Met ECD-Fc-Flis [13]): 1.29 A450 nm; AVG A450 nm (human c-Met ECD-Fc-Flis [14]): 2.08 A450 nm
2 | D11-C27G3 (antibody, human IgG2, kappa, V domains shown, Human engineered IgG2 kappa c-Met antibody; also called D11-27G3; D11-C27G3 IgG2) VH: QVQLVQSGAEVKKPGSSVKVSCKASGYTFTSRYIHWVRQAPGQGLEWMGWIYPVTGDTYYREPFKGRVTITADKSTSTAYMELSSLRSEDTAVYYCARGYGAFYYWGQGTLVTVSS VL: EIVLTQSPGTLSLSPGERATLSCSVSSSISSTNLHWYQQKPGQAPRLLIYGTSRLRSGIPDRFSGSGSGTDFTLTISRLEPEDFAVYYCQQWSSYPYSFGQGTKLEIKR | 44200 | 41500 | 44000 | 47000 | 28700 | 14600 | 16000 | 16900 | 18400 | 1.6 | 0.94 | 51.1 | 2.37 | 0.97 | 0.91 | 2.43 | 0.89 | 2.38 | 2.31 | 9.72 | % inhibition of HGF stimulated phospho-Met (ELISA, HCT116 cells), Ab 0.016 µg/mL (human c-Met [12]): 5.73%; % inhibition of HGF stimulated phospho-Met (ELISA, HCT116 cells), Ab 0.08 µg/mL (human c-Met [12]): 20.8%; % inhibition of HGF stimulated phospho-Met (ELISA, HCT116 cells), Ab 0.4 µg/mL (human c-Met [12]): 38.1%; % inhibition of HGF stimulated phospho-Met (ELISA, HCT116 cells), Ab 2 µg/mL (human c-Met [12]): 31.8%; % inhibition of HGF stimulated phospho-Met (ELISA, HCT116 cells), Ab 10 µg/mL (human c-Met [12]): 1.25%; AVG A450 nm (human c-Met ECD-Fc-Flis [13]): 0.94 A450 nm; AVG A450 nm (human c-Met ECD-Fc-Flis [14]): 2.27 A450 nm
